Experimental data from patent publication US20230280353A1, “DETECTION SYSTEM OF INTERACTION BETWEEN KNOWN MOLECULES AND PROTEINS BASED ON COVALENT CONNECTION AND IDENTIFICATION OR VERIFICATION METHOD THEREOF” (SHANGHAI JIAO TONG UNIVERSITY, priority 2021, published 2023).

B1: CobB protein (biotin-modified, with Avi tag) (enzyme)
chain: MLSRRGHRLSRFRKNKRRLRERLRQRIFFRDKVVPEAMEKPRVLVLTGAGISAESGIRTFRAADGLWEEHRVEDVATPEGFDRDPELVQAFYNARRRQLQQPEIQPNAAHLALAKLQDALGDRFLLVTQNIDNLHERAGNTNVIHMHGELLKVRCSQSGQVLDWTGDVTPEDKCHCCQFPAPLRPHVVWFGEMPLGMDEIYMALSMADIFIAIGTSGHVYPAAGFVHEAKLHGAHTVELNLEPSQVGNEFAEKYYGPASQVVPEFVEKLLKGLKAGSIA
notes: also called biotinylated CobB protein

What was measured:
[1] = target: CobB protein (biotin-modified, with Avi tag) (UniProt P75960); assay: BLI; series 1000, 500, 250, 125 nM; the filing does not say which partner was on the sensor
[2] = tested on: YTDHF1, YTDHF2, YTDHF3 proteins; assay: SPIDER verification (immunoblot) of biotinylated m6A RNA with YTDHF1, YTDHF2, YTDHF3; assay type: binding; settings: 0.5 μM biotinylated m6A RNA; GFP antibody
Source text: The sequences of YTDHF1-GFP, YTDHF2-GFP and YTDHF3-GFP were constructed on pCDNA3.1 vector and transfected into HEK293T cells with Lipofectamine 2000 (ThermoFisher 118668).
Immunoblot analysis of GFP antibody was used.

[3] = Capture and mass spectrometry identification of m6A RNA interacting proteins; assay type: binding; settings: 1 μM bait, HEK293T cell lysate
Procedure: HEK293T normal cells and SLIAC (Lys/Arg relabeled) cells were cultured and lysed with Thermo Fisher 78501 M-PER® Mammalian Protein Extraction to obtain cell lysates.
The reaction system was prepared as follows: 1 μM biotinylated m6A RNA, 5 μM SAm-Pup^E, 0.5 μM PafA7KR enzyme, 5 mM ATP, 5 mg HEK293T cell lysate or SILAC cell lysate were added, and buffer (50 mM Tris 8.0, 0.5 M NaCl, 20 mM MgCl2, 10% (v/v) Glycerol, 10 mM imidazole) was lysed to 5 ml. The system was incubated at 30° C. for 6h, and biotin agarose beads were added for incubation overnight at 4° C. Wash buffer 1 (8M urea, 50 mM Tris 8.0, 200 mM NaCl, 0.2% SDS), Wash Buffer 2 (8M urea, 50 mM Tris 8.0, 200 mM NaCl, 2% SDS), Wash buffer 3 (8M urea, 50 mM Tris 8.0, 200 mM NaCl), Wash buffer 4 (50 mM Tris 8.0, 0.5 mM EDTA, 1 mM DTT), Wash buffer 5 (50 mM NH4HCO3) were incubated at room temperature for 5 min and centrifuged at 1500 rpm for 4 min. The biotin agarose beads were transferred to a 1.5 mL centrifuge tube, centrifuged in a horizontal centrifuge with 1 mL Wash buffer 5, 1500 rpm for 4 min and washed repeatedly with Wash buffer 5 to obtain the reaction product. Trypsin was lysed and identified by mass spectrometry.

[4] = target: CobB protein (biotin-modified, with Avi tag) (UniProt P75960); assay: BLI; series 1000, 500, 250, 125, 62.5 nM; the filing does not say which partner was on the sensor
ETHR protein = target: T1, ETHR protein (Mycobacterium tuberculosis, UniProt P9WMC1); assay type: binding
T1 construct: Flag (C); 6×His (C); made in house; host or cells: E. coli BL21 (DE3), pET28a

[5] = tested on: CSP series proteins (CSP1, CSP2, CSP3); assay: SPIDER verification (Western blot) of c-di-GMP and CSP series short peptides; assay type: binding; settings: 2 μM, CSP proteins 5 μM; compared with c-di-GMP without biotinylation
Procedure: The N-terminal sequences encoding CSP1, CSP2 and CSP3 were all labeled with Flag tags and constructed on PET32a vector, which was fused with thioredoxin for expression. The recombinant vector was transformed into E. coli BL21 (DE3) strain. The CSP1, CSP2 and CSP3 proteins were obtained by adding IPTG and inducing at 37° C. for 4h when OD600 was about 0.6 in 1 L of bacteria medium. The CSP1, CSP2 and CSP3 proteins were purified by nickel column.
After that, PafA7KR (1 μM) and ATP (10 mM) were added into the system and incubated at 30° C. for 6 h. Flag antibody was used for Western blot analysis.

VacB = target: T2, VacB (UniProt P21499 1-813); assay: BLI; series 1000, 500, 250, 125, 62.5 nM; the filing does not say which partner was on the sensor
T2 sequence: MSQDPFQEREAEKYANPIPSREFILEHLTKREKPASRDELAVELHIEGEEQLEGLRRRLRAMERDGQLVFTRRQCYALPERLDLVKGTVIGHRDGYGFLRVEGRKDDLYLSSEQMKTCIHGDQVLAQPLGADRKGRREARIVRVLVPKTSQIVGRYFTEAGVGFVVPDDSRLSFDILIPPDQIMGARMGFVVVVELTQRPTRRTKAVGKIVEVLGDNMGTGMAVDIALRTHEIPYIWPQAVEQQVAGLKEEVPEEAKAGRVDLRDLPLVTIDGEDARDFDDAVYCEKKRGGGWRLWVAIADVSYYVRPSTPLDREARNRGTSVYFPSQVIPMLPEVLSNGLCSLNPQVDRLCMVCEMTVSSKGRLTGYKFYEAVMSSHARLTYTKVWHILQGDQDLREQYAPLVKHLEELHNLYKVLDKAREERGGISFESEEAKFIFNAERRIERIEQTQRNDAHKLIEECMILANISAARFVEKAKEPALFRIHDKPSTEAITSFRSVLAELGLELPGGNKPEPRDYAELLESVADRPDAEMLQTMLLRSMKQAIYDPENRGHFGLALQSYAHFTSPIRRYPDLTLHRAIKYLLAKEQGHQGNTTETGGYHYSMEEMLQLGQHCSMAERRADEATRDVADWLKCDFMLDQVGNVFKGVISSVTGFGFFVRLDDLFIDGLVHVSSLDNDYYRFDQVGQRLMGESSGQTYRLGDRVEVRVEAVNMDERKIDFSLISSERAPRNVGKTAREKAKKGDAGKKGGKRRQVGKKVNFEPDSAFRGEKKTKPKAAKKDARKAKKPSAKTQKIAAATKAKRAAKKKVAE

[6] = target: CobB interacting proteins found and purified (tested by BLI, FIGS. 8B-8F); assay: BLI
DksA, P0ABS1 = target: T3, DksA, P0ABS1
T3 chain: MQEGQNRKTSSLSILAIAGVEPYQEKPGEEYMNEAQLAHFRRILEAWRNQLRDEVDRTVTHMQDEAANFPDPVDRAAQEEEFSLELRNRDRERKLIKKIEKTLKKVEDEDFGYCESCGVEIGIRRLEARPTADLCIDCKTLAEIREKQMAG

VacB, P21499 = target: T4, VacB, P21499
T4 chain: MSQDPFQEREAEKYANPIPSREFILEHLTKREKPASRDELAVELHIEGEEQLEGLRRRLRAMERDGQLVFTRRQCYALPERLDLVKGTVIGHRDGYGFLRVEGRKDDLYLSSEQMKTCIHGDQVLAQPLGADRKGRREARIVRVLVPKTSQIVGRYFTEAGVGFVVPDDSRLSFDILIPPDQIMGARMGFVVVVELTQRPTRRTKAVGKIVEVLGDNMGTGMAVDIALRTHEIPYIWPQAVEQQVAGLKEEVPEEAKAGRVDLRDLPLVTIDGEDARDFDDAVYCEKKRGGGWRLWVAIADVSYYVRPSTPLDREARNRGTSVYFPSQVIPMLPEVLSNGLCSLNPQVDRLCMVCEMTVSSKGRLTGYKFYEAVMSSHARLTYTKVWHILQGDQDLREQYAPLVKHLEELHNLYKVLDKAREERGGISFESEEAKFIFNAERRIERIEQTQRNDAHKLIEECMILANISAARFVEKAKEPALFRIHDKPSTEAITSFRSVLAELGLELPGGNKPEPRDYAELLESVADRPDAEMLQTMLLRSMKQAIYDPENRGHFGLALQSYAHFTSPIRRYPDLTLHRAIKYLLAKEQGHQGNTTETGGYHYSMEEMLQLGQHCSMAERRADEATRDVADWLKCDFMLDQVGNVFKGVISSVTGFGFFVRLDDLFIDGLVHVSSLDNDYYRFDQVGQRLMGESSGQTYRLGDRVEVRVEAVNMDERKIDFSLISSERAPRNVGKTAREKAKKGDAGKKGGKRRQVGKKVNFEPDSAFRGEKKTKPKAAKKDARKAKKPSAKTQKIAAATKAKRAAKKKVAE

VacB and DksA proteins = assay: CobB deacetylation of VacB and DksA (Western blot, acetylation antibody); assay type: biochemical; settings: VacB and DksA co-incubated with CobB
Procedure: CobB has the activity of deacetylase. CobB was co-incubated with VacB and DksA proteins, and the acetylation level of protein was detected by Western blot analysis of acetylation antibody.

[7] = Procedure: The SA-Pup purified from Step 1 was added into Buffer R (50 mM Tris, PH 7.5, 100 mM NaCl, 20 mM MgCl2, 10% (v/v) glycerol) and high salt buffers (50 mM Tris-HCl, PH 8.0, 8 M urea, 15 mM DTT, 1 mM EDTA, PH 8.0) containing 8 M urea, respectively. After mixing, the supernatant was absorbed, and then biotin agarose beads were added to rotate and incubate at room temperature for 1 hour, and then the supernatant was absorbed. The supernatant was detected by SDS-PAGE.
[8] = Biotin binding activity of SAm-Pup^E (SDS-PAGE); settings: incubated with biotin at room temperature 1 hour
Procedure: The SAm-Pup^E protein and wild-type streptavidin (SA) purified in step 1 were mixed with biotin (A600078) and incubated at room temperature for 1 hour, and then detected by SDS-PAGE.

[9] = target: B1; assay: BLI; series 7500, 5000, 2500, 1250 nM; the filing does not say which partner was on the sensor
CheAs protein = assay type: binding; settings: CheZ 0, 0.1, 0.2, 0.4 μM; wild-type CheAs 0.2 μM

Molecule: RraA
- Kd [1]: 24.6 nM
- koff [1]: 0.000201 s⁻¹

Molecule: biotinylated m6A RNA: 5′-terminal biotin-modified m6A RNA, sequence CGUCUCGGCUCGGCUGCU (SEQ ID NO: 8) (5' biotin, m6A modification, chemistry not fully specified)
- protein-SAm-Pup^E complex bands [2]: presence of complex bands only in the presence of biotinylated m6A RNA
- binding proteins obtained by mass spectrometry [3]: YTDHF1, YTDHF2 and YTDHF3

Molecule: RoxA
- Kd [4]: 103 nM
- koff [4]: 0.00124 s⁻¹

Molecule: biotinylated c-di-GMP
- complex band of ETHR and SAm-Pup^E monomer (ETHR protein): the detected complex bands become thicker
- migration of CSP series protein bands [5]: migrated significantly

Molecule: GldA
- Kd [4]: 59.4 nM
- koff [4]: 0.000295 s⁻¹

Molecule: Nc1nc2c(ncn2[C@@H]2O[C@@H]3COP(=O)(O)O[C@H]4[C@@H](O)[C@H](n5cnc6c(=O)[nH]c(N)nc65)O[C@@H]4COP(=O)(O)O[C@H]3[C@H]2O)c(=O)[nH]1 [c-di-GMP]
- complex bands with excessive non-biotinylated competitor (ETHR protein; excessive non-biotinylated c-di-GMP added to compete with biotinylated c-di-GMP): the complex bands were basically unchanged

Molecule: B1
- Kd (VacB): 156 nM
- koff (VacB): 0.00163 s⁻¹
- Kd [6]: 25 to 772 nM
- acetylation level of DksA (IB: Ac-K), with and without CobB (DksA, P0ABS1): Ac-K band seen without CobB, not seen with CobB; His (DksA) bands alike in both lanes; biotin-CobB band only in the + lane
- acetylation level of protein detected by Western blot analysis of acetylation antibody (DksA, P0ABS1): the acetylation level of a group of proteins added with CobB decreased obviously
- acetylation level of VacB (IB: Ac-K), with and without CobB (VacB, P21499): Ac-K band clear without CobB, almost gone with CobB; His (VacB) bands alike in both lanes; biotin-CobB band only in the + lane
- acetylation level of protein detected by Western blot analysis of acetylation antibody (VacB, P21499): the acetylation level of a group of proteins added with CobB decreased obviously

B2: CobB: Biotin-modified CobB protein with Avi tag; has deacetylase activity (protein)
chain: MLSRRGHRLSRFRKNKRRLRERLRQRIFFRDKVVPEAMEKPRVLVLTGAGISAESGIRTFRAADGLWEEHRVEDVATPEGFDRDPELVQAFYNARRRQLQQPEIQPNAAHLALAKLQDALGDRFLLVTQNIDNLHERAGNTNVIHMHGELLKVRCSQSGQVLDWTGDVTPEDKCHCCQFPAPLRPHVVWFGEMPLGMDEIYMALSMADIFIAIGTSGHVYPAAGFVHEAKLHGAHTVELNLEPSQVGNEFAEKYYGPASQVVPEFVEKLLKGLKAGSIA
- acetylation level of protein (VacB and DksA proteins): decreased obviously

B3: SAm-Pup^E: mutated streptavidin-Pup tetramer, amino acid sequence SEQ ID NO: 5 (protein)
chain: MGAEAGITGTWYNQLGSTFIVTAGADGALTGTYESAVGNAESRYVLTGRYDSAPATDGSGTALGWTVAWRNNYRNAHSATTWSGQYVGGAEARINTQWLLTSGTTEANAWRSTLVGHDTFTRVRPSAASGGGGGSGSHHWGGGGSLTEETDDLLDEIDDVLEENAEDFVRAYVQRGGE
modifications: tetramer; The sequence is synthesized.
- stability of binding to biotin agarose beads [7]: can still bind stably in high salt buffer
- biotin-binding activity [8]: the same biotin-binding activity as wild-type streptavidin

B4: DksA (other)
chain: MQEGQNRKTSSLSILAIAGVEPYQEKPGEEYMNEAQLAHFRRILEAWRNQLRDEVDRTVTHMQDEAANFPDPVDRAAQEEEFSLELRNRDRERKLIKKIEKTLKKVEDEDFGYCESCGVEIGIRRLEARPTADLCIDCKTLAEIREKQMAG
- Kd [9]: 772 nM
- koff [9]: 0.00167 s⁻¹

B5: CheZ: biotin-modified protein CheZ with Avi tag (protein)
chain: MMQPSIKPADEHSAGDIIARIGSLTRMLRDSLRELGLDQAIAEAAEAIPDARDRLYYVVQMTAQAAERALNSVEASQPHQDQMEKSAKALTQRWDDWFADPIDLADARELVTDTRQFLADVPAHTSFTNAQLLEIMMAQDFQDLTGQVIKRMMDVIQEIERQLLMVLLENIPEQESRPKRENQSLLNGPQVDTSKAGVVASQDQVDDLLDSLGF
- complex bands of CheAs and SAm-Pup^E monomer (CheAs protein): the detected complex bands become thicker
